From paper PMC8190142, “Activation of PARP2/ARTD2 by DNA damage induces conformational changes relieving enzyme autoinhibition”

Legend:
[1] = biological target: T1, PARP2 FL E286R (human (Homo sapiens), UniProt Q9UGN5 1-583, E286R); experiment: fluorescence polarization; mean and SD of 3 listed KDs (18.12, 7.571, 5.497); FP buffer, salt, pH and temperature not given (as in cited ref 17); crystallization: complex purified in 20 mM Hepes pH 7.5, 300 mM NaCl, 0.5 mM TCEP; crystals; details: protein: recombinant; tags: His-tag construct, TEV cleaved; label: fluorescein on internal T10; dumbbell of two hairpins (TTTT loops) with one nick
[2] = biological target: T2, PARP2 FL Y201F (human (Homo sapiens), UniProt Q9UGN5 1-583, Y201F); experiment: fluorescence polarization; mean and SD of 3 listed KDs (46.26, 27.47, 48.04); FP buffer, salt, pH and temperature not given (as in cited ref 17); crystallization: complex purified in 20 mM Hepes pH 7.5, 300 mM NaCl, 0.5 mM TCEP; crystals; details: protein: recombinant; tags: His-tag construct, TEV cleaved; label: fluorescein on internal T10; dumbbell of two hairpins (TTTT loops) with one nick
[3] = biological target: T3, PARP2 FL E286A (human (Homo sapiens), UniProt Q9UGN5 1-583, E286A); experiment: fluorescence polarization; mean and SD of 3 listed KDs (10.42, 7.271, 6.234); FP buffer, salt, pH and temperature not given (as in cited ref 17); crystallization: complex purified in 20 mM Hepes pH 7.5, 300 mM NaCl, 0.5 mM TCEP; crystals; details: protein: recombinant; tags: His-tag construct, TEV cleaved; label: fluorescein on internal T10; dumbbell of two hairpins (TTTT loops) with one nick
[4] = biological target: T4, PARP2 FL N129A (human (Homo sapiens), UniProt Q9UGN5 1-583, N129A); experiment: fluorescence polarization; mean and SD of 3 listed KDs (14.36, 8.278, 5.785); FP buffer, salt, pH and temperature not given (as in cited ref 17); crystallization: complex purified in 20 mM Hepes pH 7.5, 300 mM NaCl, 0.5 mM TCEP; crystals; details: protein: recombinant; tags: His-tag construct, TEV cleaved; label: fluorescein on internal T10; dumbbell of two hairpins (TTTT loops) with one nick
[5] = biological target: T5, PARP2 FL G338A (human (Homo sapiens), UniProt Q9UGN5 1-583, G338A); experiment: fluorescence polarization; mean and SD of 3 listed KDs (10.62, 9.907, 6.489); FP buffer, salt, pH and temperature not given (as in cited ref 17); crystallization: complex purified in 20 mM Hepes pH 7.5, 300 mM NaCl, 0.5 mM TCEP; crystals; details: protein: recombinant; tags: His-tag construct, TEV cleaved; label: fluorescein on internal T10; dumbbell of two hairpins (TTTT loops) with one nick
[6] = biological target: T6, PARP2 FL wt (human (Homo sapiens), UniProt Q9UGN5 1-583); experiment: fluorescence polarization; mean and SD of 3 listed KDs (10.74, 7.933, 8.182); FP buffer, salt, pH and temperature not given (as in cited ref 17); crystallization: complex purified in 20 mM Hepes pH 7.5, 300 mM NaCl, 0.5 mM TCEP; crystals; details: protein: recombinant; tags: His-tag construct, TEV cleaved; label: fluorescein on internal T10; dumbbell of two hairpins (TTTT loops) with one nick
[7] = biological target: T7, PARP2 FL R153A (human (Homo sapiens), UniProt Q9UGN5 1-583, R153A); experiment: fluorescence polarization; mean and SD of 3 listed KDs (20.13, 10.37, 8.203); FP buffer, salt, pH and temperature not given (as in cited ref 17); crystallization: complex purified in 20 mM Hepes pH 7.5, 300 mM NaCl, 0.5 mM TCEP; crystals; details: protein: recombinant; tags: His-tag construct, TEV cleaved; label: fluorescein on internal T10; dumbbell of two hairpins (TTTT loops) with one nick
[8] = biological target: T2, PARP2 FL Y201F; experiment: fluorescence polarization; mean and SD of 3 listed KDs (93.24, 46.79, 151.2); FP buffer, salt, pH and temperature not given (as in cited ref 17); crystallization: complex purified in 20 mM Hepes pH 7.5, 300 mM NaCl, 0.5 mM TCEP; crystals; details: protein: recombinant; tags: His-tag construct, TEV cleaved; label: fluorescein on internal T8 of strand 2; blunt, 20 bp
[9] = biological target: T1, PARP2 FL E286R; experiment: fluorescence polarization; mean and SD of 3 listed KDs (12.72, 25.07, 16.53); FP buffer, salt, pH and temperature not given (as in cited ref 17); crystallization: complex purified in 20 mM Hepes pH 7.5, 300 mM NaCl, 0.5 mM TCEP; crystals; details: protein: recombinant; tags: His-tag construct, TEV cleaved; label: fluorescein on internal T8 of strand 2; blunt, 20 bp
[10] = biological target: T6, PARP2 FL wt; experiment: fluorescence polarization; mean and SD of 3 listed KDs (28.05, 21.44, 26.07); FP buffer, salt, pH and temperature not given (as in cited ref 17); crystallization: complex purified in 20 mM Hepes pH 7.5, 300 mM NaCl, 0.5 mM TCEP; crystals; details: protein: recombinant; tags: His-tag construct, TEV cleaved; label: fluorescein on internal T8 of strand 2; blunt, 20 bp
[11] = biological target: T3, PARP2 FL E286A; experiment: fluorescence polarization; mean and SD of 3 listed KDs (22.43, 26.3, 23.94); FP buffer, salt, pH and temperature not given (as in cited ref 17); crystallization: complex purified in 20 mM Hepes pH 7.5, 300 mM NaCl, 0.5 mM TCEP; crystals; details: protein: recombinant; tags: His-tag construct, TEV cleaved; label: fluorescein on internal T8 of strand 2; blunt, 20 bp
[12] = biological target: T7, PARP2 FL R153A; experiment: fluorescence polarization; mean and SD of 3 listed KDs (232.6, 64.05, 161.3); FP buffer, salt, pH and temperature not given (as in cited ref 17); crystallization: complex purified in 20 mM Hepes pH 7.5, 300 mM NaCl, 0.5 mM TCEP; crystals; details: protein: recombinant; tags: His-tag construct, TEV cleaved; label: fluorescein on internal T8 of strand 2; blunt, 20 bp
[13] = biological target: T5, PARP2 FL G338A; experiment: fluorescence polarization; mean and SD of 3 listed KDs (27.96, 29.72, 25.09); FP buffer, salt, pH and temperature not given (as in cited ref 17); crystallization: complex purified in 20 mM Hepes pH 7.5, 300 mM NaCl, 0.5 mM TCEP; crystals; details: protein: recombinant; tags: His-tag construct, TEV cleaved; label: fluorescein on internal T8 of strand 2; blunt, 20 bp
[14] = biological target: T4, PARP2 FL N129A; experiment: fluorescence polarization; mean and SD of 3 listed KDs (58.73, 44.74, 72.15); FP buffer, salt, pH and temperature not given (as in cited ref 17); crystallization: complex purified in 20 mM Hepes pH 7.5, 300 mM NaCl, 0.5 mM TCEP; crystals; details: protein: recombinant; tags: His-tag construct, TEV cleaved; label: fluorescein on internal T8 of strand 2; blunt, 20 bp
[15] = biological target: PARP2 WGR-RD-ART (human (Homo sapiens), UniProt Q9UGN5 90-583); experiment: X-ray crystallography (2.8 A); FP buffer, salt, pH and temperature not given (as in cited ref 17); crystallization: complex purified in 20 mM Hepes pH 7.5, 300 mM NaCl, 0.5 mM TCEP; crystals; details: protein: recombinant; tags: His-tag construct, TEV cleaved; chain copies: 2; blunt, 16 bp; 2 duplex copies in the biological unit
Sequence of PARP2 WGR-RD-ART (Q9UGN5 90-583): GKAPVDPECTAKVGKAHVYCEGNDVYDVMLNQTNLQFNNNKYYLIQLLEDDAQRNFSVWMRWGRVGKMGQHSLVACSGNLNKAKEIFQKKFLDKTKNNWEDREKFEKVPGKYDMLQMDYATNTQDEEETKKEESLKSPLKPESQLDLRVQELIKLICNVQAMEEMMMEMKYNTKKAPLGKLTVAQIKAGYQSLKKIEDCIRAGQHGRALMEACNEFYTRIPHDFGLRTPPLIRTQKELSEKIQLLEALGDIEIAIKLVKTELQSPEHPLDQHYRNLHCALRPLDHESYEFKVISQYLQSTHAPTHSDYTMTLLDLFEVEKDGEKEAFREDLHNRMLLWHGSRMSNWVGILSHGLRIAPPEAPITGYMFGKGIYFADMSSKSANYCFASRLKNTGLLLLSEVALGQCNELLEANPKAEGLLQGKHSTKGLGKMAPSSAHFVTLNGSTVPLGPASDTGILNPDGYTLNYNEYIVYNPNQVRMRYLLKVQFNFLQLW

T2 sequence (Q9UGN5 whole entry Y201F): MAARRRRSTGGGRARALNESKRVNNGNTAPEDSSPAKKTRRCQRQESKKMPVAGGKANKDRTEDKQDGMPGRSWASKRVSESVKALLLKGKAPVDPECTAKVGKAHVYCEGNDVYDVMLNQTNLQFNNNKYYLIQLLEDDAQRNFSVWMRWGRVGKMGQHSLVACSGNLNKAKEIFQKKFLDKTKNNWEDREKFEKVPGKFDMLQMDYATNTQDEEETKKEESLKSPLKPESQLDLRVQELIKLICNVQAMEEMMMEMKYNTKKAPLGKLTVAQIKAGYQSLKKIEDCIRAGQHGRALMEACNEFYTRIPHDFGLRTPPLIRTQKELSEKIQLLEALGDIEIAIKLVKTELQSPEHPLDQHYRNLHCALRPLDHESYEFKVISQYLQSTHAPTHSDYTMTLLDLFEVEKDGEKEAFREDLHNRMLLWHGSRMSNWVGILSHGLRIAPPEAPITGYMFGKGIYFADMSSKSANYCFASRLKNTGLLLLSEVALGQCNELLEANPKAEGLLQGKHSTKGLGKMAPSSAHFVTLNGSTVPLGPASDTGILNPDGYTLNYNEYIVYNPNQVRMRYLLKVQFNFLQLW
T5 sequence (Q9UGN5 whole entry G338A): as the sequence (Q9UGN5 whole entry Y201F) above, with F201Y, G338A counted along it
T6 sequence (Q9UGN5 whole entry): as the sequence (Q9UGN5 whole entry Y201F) above, with F201Y counted along it
T3 sequence (Q9UGN5 whole entry E286A): as the sequence (Q9UGN5 whole entry Y201F) above, with F201Y, E286A counted along it
T1 sequence (Q9UGN5 whole entry E286R): as the sequence (Q9UGN5 whole entry Y201F) above, with F201Y, E286R counted along it
T4 sequence (Q9UGN5 whole entry N129A): as the sequence (Q9UGN5 whole entry Y201F) above, with N129A, F201Y counted along it
T7 sequence (Q9UGN5 whole entry R153A): as the sequence (Q9UGN5 whole entry Y201F) above, with R153A, F201Y counted along it

## GGAAGTCTTTTGACTTCCTCGAAGCTTTTGCTTCGA (structured_DNA, 5'-phosphate) [DNA-8 nicked dumbbell]
[1]
  Kd: 10.4 ± 6.77 nM
[2]
  Kd: 40.6 ± 11.4 nM
[3]
  Kd: 7.98 ± 2.18 nM
[4]
  Kd: 9.47 ± 4.41 nM
[5]
  Kd: 9.01 ± 2.21 nM
[6]
  Kd: 8.95 ± 1.55 nM
[7]
  Kd: 12.9 ± 6.35 nM

B1: DNA-9 dsDNA (dsDNA)
DNA 1: GACGCAACCCGGAGAACACA
DNA 2: TGTGTTCTCCGGGTTGCGTC
modifications: 5'-phosphate on strand 1
[8]
  Kd: 97.1 ± 52.3 nM
[9]
  Kd: 18.1 ± 6.32 nM
[10]
  Kd: 25.2 ± 3.39 nM
[11]
  Kd: 24.2 ± 1.96 nM
[12]
  Kd: 153 ± 84.6 nM
[13]
  Kd: 27.6 ± 2.34 nM
[14]
  Kd: 58.5 ± 13.7 nM

B2: DNA-1 (dsDNA)
DNA 1: GACGACCCGGAGCACA
DNA 2: TGTGCTCCGGGTCGTC
modifications: 5'-phosphate on strand 1
[15]
  binding result: binds
